# The supplement of paper PMC12636428
# System: Saccharomyces cerevisiae
# Assay: transcriptional activation domain activity (GFP:mCherry ratio, weighted mean of sorted bins, harmonized to initial dataset scale) (arbitrary fluorescence ratio units); higher = stronger transcriptional activation
# Settings: beta-estradiol 1 µM; induction time 4 h
# Summary of the method: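 Activation activity, the read-weighted mean of bin median fluorescence averaged across barcodes, was linearly mapped onto the scale of the initial dataset. It was measured for barcoded protein tiles fused to an estradiol-inducible synthetic transcription factor at URA3 in GFP-reporter yeast diploids. Cultures diluted 1:5 into SC with 1 uM beta-estradiol were held 4 hours at 30 °C, sorted into 8 bins by GFP:mCherry ratio, and barcode-sequenced, and tiles under 50 reads were discarded.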
row,Sequence,transcriptional activation domain activity
1,MYCFIILYMYILLLFFSRSVYFSLFFFFFCLHFYSIFFFFICSLFIYLFIYLF,63500
2,MYCMRYFAPLFLLPFPDAPPFFVVLSLISFFLHQKPCIYCVFLLLALFSSTCY,61400
3,MYCMRYFVPLFLLPFPDSPPIFVILFLISFFLHQKPCIYCTLLLFALFSSTCF,48600
4,MYCMRYFVPLLLLPFPDAPPVFVILFLISFFLHQKPCIYCTLLLIALFCSTCY,72300
5,MYCMRYFVPLLLLPFPDSPPIFVILFLISFFLHQKPCIYCTLLLFALFSSTCF,57700
6,MYCSLQTLLFRFFAYWQGMTFFGFLFCFHVLGSQNLFFGSCFVLLLMQLLCLF,58900
7,MYCVSFSHFYPPPLSFFHYGFDIFLFIFLIFFFCCPFLFAQVVVGYAICWYHT,51300
8,MYDACLCGRLGFFYLLLVFFLSSVFHSHLFFLPFFGLFYLLRYFFFNFSTFVA,52700
9,MYDFFLFLSFLPFPSPSLLCFLILFSFIYLLLFHFYIYIYICLFLSFYIHAFV,10600
10,MYECACFPFPFFLSFFFFLSSFSYGCPFCFVGYRFPLLPLLLSVFLFLGLCLM,33800
11,MYECLAECEFLARLYFFLLHCCVYCTIIVYIFFLLVNCYAGVVSRLLELQTLR,41100
12,MYELAFFFFFFLFRLFLSLFRGGCFWVQIFVFIPEYLVYSILFSFFFLLLFTF,47500
13,MYELIGQGVSFFCCYFACVCFALHFCFGPYFGLWLWHCIFKTFFFLLVFFPNY,61200
14,MYETNLFQWKLSIGFGFVLDYFIGLFLLDFFILDCIFYLLINSAICVFYSLSG,58100
15,MYFASYIFISFFSLFISIIHPFKIYYILLYTHHIIISIQLLLPFHFLTSIILS,80300
16,MYFAYFYLLPEMSSLSFFPFLSVYVFFIFFSSLICFFFFLSMGFLCLFTFLLV,45200
17,MYFCLDKLRRLACFLSLFFVSFFLFLCLTLFFALLFIISLSLLMYRCVLISLC,14000
18,MYFIILAFVWCFCSCFCFRCVAFWWPLSLSLCLSVGIYLLAFFFFFTTLVLVY,26200
19,MYFVYTYSGLAFFFFFSFFWCTSIYLNILLVLFYLALGFCKVYFLLLFYLPKT,39900
20,MYGHVWMGVLHCKLLLVGFLWVLFTLMPDMYIHGREGINSAYTIGHSFTIGFA,47400
21,MYGLVFLLPLFCSLLLFLFCFCCLSPRPTWGLFVSIELFLQARDGLVNWLLAF,50100

row,Sequence,transcriptional activation domain activity
1,MYGNLTYTEWSRYLADMLSMQKLLFVSVEANCRERILLLRISGRCPQLCPLWA,47200
2,MYGYCLLFYLFLFSFISLFYFYFYFYILYFLLLILIFFYFTTVLVSFHFILFF,43400
3,MYHAKFLYLLLGFLVYFLSSQTSINVYYISLNPFLFLAHPTILLIPLFPFRYT,39700
4,MYHALHKSGLSDTYIIQDVGVPFDAVEAFYKWLHETLHIYPLWLCPIRVRRYT,44700
5,MYHIPWPQVLWVGYQLRPTQIMGIFCSHLSVVLLVLPTPYYFLFHVLFLLWAS,48900
6,MYHISCWFIFFHLLMSHIFIFIFIFLLLLFYKCIIFLFLYTYFFYFLVFSRLL,25700
7,MYHISIQLLSVFISPSTPLFPDFLQISISFHLYSFFLFAIVIFFYFICLFLFV,61100
8,MYHITVFSLPLNLYCARCFALTLTILMGKSFLMGFINVFNRICTLLVTTLFLI,70100
9,MYHIVIIIPLCLLLFGPFILATDSPFCIVRHPFFFFFLFYQSFIAFTFFFFFT,62700
10,MYHPPWVLVGKCGSKEVRDELARHQLIACSRDLSVHVLKVDLLRKSWLLGHWR,58900
11,MYHSIQLGPVVSLLSLALSFIFFFLSPFFFFPFLALSFAPLFVILIFFFISTC,29000
12,MYICIYLLLGFVVWGISLICLVVIVILYILDNSFCSPYTSCSTSFPFLISLFY,40300
13,MYICVRKVYVHFDMNLRVYWIVAIMVKCICGLVELCLITSPPYIMLVLSKLFL,32100
14,MYILDKIKGEKGKQEGGEREAERGRGGAGRGEQEQEGGAGAGRGSRSKKGEQG,30700
15,MYILFFFNIYYLYSILHLFCFRFFFISLFSFSFSLLSLLTYFLQYYIIIYLKI,58200
16,MYILILIFFLSFFLSFLNGSILYLGIVLLPCAYRRVYTVVCLVFTIQIVLRIK,61400
17,MYILTIIPFFKHMSFFSFFLSCFFMSLLIVLLLLLLLLFSLLLLLLFFFPRPL,54400
18,MYIPPQSSVFLDIDSWGLIPVTCHLWLVMRWMYEAVMLPYLSQDGRHIVKFRY,40700
19,MYIQYNILLTFPFLFLHFLFLFFFFFFFFLLFFFFLSRSPLTPSLAPPSPLLT,65300
20,MYISLFITYLYTYILELCFDFLTIFIIYFHFFSASCMLHSISPLLFICFSFFQ,57700
21,MYKSYIFFYLPLLFNCFIMSFFFLYEMPFFYLGRMLHFLLSLISGSWFFFYLF,50900

row,Sequence,transcriptional activation domain activity
1,MYLAVHWFYISGCTHHIFMIFLFMSKFLCLLMLLLSSCVVLSSFRTIFVLSFS,62700
2,MYLEVRCQLLGCMAIWWDNWFRLDLLSLVSAYRILLLCMGEFLIWKFWFIRLF,60000
3,MYLFFFFFFFGWVLSLLLYVFFGLGIIGIGIVLFVFVLAFFFLFLGGIFFCGL,43900
4,MYLFFFFFLDWFFFVVIITIICILWIWAWDFWACLLGIGIGFACLFYSGWVLF,47800
5,MYLFFLFYILEFAVRSESGPICASNTKCIGRYCVYCKCTSLLSRVLRLLFICC,64300
6,MYLFVLYLFFFIIVIRLFMLLFCVYFSVIFCYLFTLVLLLLFIIFFKLIFILL,62600
7,MYLPKPGWLHVAGWLFILSLYLSIYIISYLISSYICNLCSFFCYLLLACILSF,49600
8,MYLQWASCPLLICVSCFYTSLIYFAIISMSSMILTLVCLDRSMCWYSGWIFSS,46000
9,MYLWVLLQKVGLLLLLLLLLLLLLLLLLLHWLLHLLLLLLLLLLLLYQVCLQW,23400
10,MYMIFINPLLLMIILYIKLLPLMFPLLINLLILLIFLLYIHLLSIVFLQKFYI,60100
11,MYMSTIRSGHLQPVPSSSKLILFIFLFLFSLISLFFLVGSFPPFFLSYLWILC,31200
12,MYNLNLFYFSFFLSLSLFLFFFPLPFFFRSVWFANLFFVLLFLYYVPFLSHSC,58700
13,MYNMLVCLAIEFLWQHLYFFLFLYLTLCCDTFQLILYTPLSMFLFFIFILLKK,16500
14,MYNNIHIPFFVLFLFFFFLSLFFFFFSLIFFFSFYCILTLCWYAFCLFFLKKN,34700
15,MYNTALITIYLLLLLRRIFFTWSYLAYSFNFIATRVFARITMLMLVELFRQHD,67400
16,MYNTVLAWYCFIFAHVYSFLHCCFYYWFFLAFWLFGLLTYLSFVVGGVFFMPR,53300
17,MYPFLFFLSFLLFSSLTFLFSLLSFEFKFFFTFSSSFFFFCLTLCFFCQSFFF,36400
18,MYQIEALYLILTYKSIPFYHFNYFSIELIIKPTYLFLYLFFSYLFLHWLNLFD,35100
19,MYRCYCGLLMVPWYPCAVVFHVCLCGVRWGCENGVIGVYVLGWWVLWFVVLFG,32600
